From patent US11702469B2, “Recombinant EGFL7, EGFL7 antibodies, and uses thereof” (Ohio State Innovation Foundation, priority 2017, dated 2023) come the findings set out here.

Series [1] relates to PARP1 and CASP3 cleavage. Nature of the series: PARP1 and Casp3 cleavage immunoblot, THP-1. The format is cell-based, human. The note with it: anti-EGFL7 treatment, western blots. As for the experimental part:
FIG. 24A-24G. EGFL7 prevents activation of NOTCH signaling in AML cells. (FIG. 24A) Overview of experiments using DLL4-FC and IgG-FC control coated plates to induce NOTCH activation. (FIG. 24B) THP-1 cells were pre-treated with 10 μM γ-secretase inhibitor (AVA), 100 μg/ml anti-EGFL7 antibody or 0.25 μM rEGFL7 for 30 min, then transferred to IgG-Fc or DLL4-Fc coated plates. After 4 h of incubation total RNA from THP-1 cells was extracted for qRT-PCR analysis of HES1 with β-ACTIN as internal control. ^###P<0.001 DLL4-FC vs IgG-FC; ***P<0.001 DLL4+AVA, DLL4+rEGFL7, and DLL4+anti-EGFL7 vs DLL4-FC. […] THP-1 cells were treated with the indicated concentration of anti-EGFL7 (@E7) then assessed for apoptosis using (FIG. 24D) AnnexinV+ staining and FACS; *P<0.05 (FIG. 24E) Immuno-blotting for PARP1 and Casp3 cleavage. (FIG. 24F) Cell differentiation was assessed by CD11B and CD14 staining 96-hours post anti-EGFL7 treatments; *P<0.05. (FIG. 24G) To determine whether activation of NOTCH by DLL4-Fc could be accentuated by anti-EGFL7 treatment, THP-1 cells were first treated with anti-EGFL7 (100 μg/ml) and then cultured on DLL4-FC or IgG-Fc coated plates and then assessed for apoptosis using AnnexinV+ staining and FACS. *P<0.05 DLL4-Fc and anti-EGFL7; vs DLL4-FC+anti-EGFL7. […]

Series [2] relates to wild type (C57Bl/6J) mice. Briefly: Toxicity on normal hematopoiesis in wild type mice. The format is in vivo. The note with it: 50 mpk twice a week for two weeks. On the procedure: FIG. 20A-20B. WT mice were treated with 50 mpk twice weekly of Parsatuzumab (@EGFL7) or IgG1 control. FIG. 20A. CBCs from mice harvested after treatment. FIG. 20B. Percent engraftment of treated BM (CD45.2+) transplanted into BoyJ recipient mice (CD45.1).
To assess the toxicity of Parsatuzumab on normal hematopoiesis, wild type (C57Bl/6J) mice were treated with Parsatuzumab (n=4) and IgG1 control (n=4) with the highest dose previously tested at 50 mpk twice a week for two weeks. Parsatuzumab targets both human and mouse EGFL7 protein. After two weeks of treatment, blood, spleen and BM were harvested and full phenotypic characterization was performed to assess toxicity. […] Full immunophenotypic examination of BM populations was also performed (data not shown due to space constraints). […] To functionally test the effect of Parsatuzumab on normal HSPCs, competitive repopulation BM transplantation (BMT) assays and CFU assays were performed. For competitive BMT, 2×10^6 WBM was harvested from Parsatuzumab and IgG1 treated mice (CD45.2) with 2×10^6 BoyJ (CD45.1) WBM and transplanted into lethally irradiated BoyJ recipients.

B1: Parsatuzumab: Anti-human EGFL7 therapeutic antibody (Parsatuzumab) obtained from Creative Biolabs; blocking monoclonal antibody (antibody, chains of the INN, looked up, V domains shown)
VH: EVQLVESGGGLVQPGGSLRLSCAASGYTFIDYYMNWVRQAPGKGLEWVGDINLDNSGTHYNQKFKGRFTISRDKSKNTAYLQMNSLRAEDTAVYYCAREGVYHDYDDYAMDYWGQGTLVTVSS
VL: DIQMTQSPSSLSASVGDRVTITCRTSQSLVHINAITYLHWYQQKPGKAPKLLIYRVSNRFSGVPSRFSGSGSGTDFTLTISSLQPEDFATYYCGQSTHVPLTFGQGTKVEIK
Turning to B1, the “PARP1 and CASP3 cleavage” value in series [1] is “increase in PARP1 and CASP3 cleavage”. Besides, the “number of CFUs and types of colonies from treated BM” value in series [2] (vs IgG1) is “no significant changes in the number of CFUs or types of colonies formed”. Also, in series [2] (vs IgG1 control), the “full differential complete blood counts (CBCs)” value is “No significant changes” and the “immunophenotypic examination of BM populations” value is given as “no significant changes in any hematopoietic stem and/or progenitor populations”.
